Measurements as given in publication PMC5028891 (Scientific Reports, 2016).

B1: unnamed (parent)
chain 1: MASMGLQVMGIALAVLGWLAVMLCCALPMWRVTAFIGSNIVTSQTIWEGLWMNCVVQSTGQMQCKVYDSLLALPQDLQAARALVIISIIVAALGVLLSVVGGKCTNCLEDESAKAKTMIVAGVVFLLAGLMVIVPVSWTAHNIIQDFYNPLVASGQKREMGASLYVGWAASGLLLLGGGLLCCNCPPRTDKPYSAKYSAARSAAASNYV
chain 2: RCVLTVPSTDIEKEILDLAAATERLNLTDALNSNPAGNLYDWRSSNSYPWTQKLNLHLTITATGQKYRILASKIVDFNIYSNNFNNLVKLEQSLGDGVKDHYVDISLDAGQYVLVMKANSSYSGNYPYSILFQKF

Variants of: B1
Test: pull-down
Conditions: with partner chain of the complex shown; n = 4; parent: 1; read off a plot

Row | Variant | ratio to parent
1 | chain 1 I40A | 1.1
2 | chain 1 I40D | 0.21
